Where no end group is shown, it is not given here.
B1: Phage-907 (peptide)
peptide: YCDGHAPQWMAKCL
notes: Peptide-87 library clone, tested as clonal phage supernatant with the peptide fused to the pIII filament of the bacteriophage
B2: Phage-910 (peptide)
peptide: YCEGHAQEYMNKCL
notes: as for B1
B3: Phage-913 (peptide)
peptide: YCDGHIGLYLNKCL
notes: as for B1
B4: Phage-915 (peptide)
peptide: YCEGHLPQYMRPCL
notes: as for B1
B5: Phage-888 (peptide)
peptide: YCAGHTQEYMYKCL
modifications: cysteine pairing not given here; also: fused to phage pIII
notes: not shown: pIII filament protein of the bacteriophage to which the peptide is fused
B6: Phage-916 (peptide)
peptide: YCEGHLSQYMSKCL
notes: as for B1
B7: Phage-912 (peptide)
peptide: YCDGHSADYMAKCL
notes: as for B1
B8: Phage-909 (peptide)
peptide: YCDGHAAEYMAKCV
notes: as for B1
B9: Phage-914 (peptide)
peptide: YCEGHLPMYMIKCL
notes: as for B1
B10: Phage-887 (peptide)
peptide: YCDGHSLAYIAKCL
modifications: cysteine pairing not given here; also: fused to phage pIII
notes: as for B5
B11: Phage-918 (Peptide-87 library clone, SEQ ID NO: 1234) (peptide)
peptide: YCAGHLPEFMDKCL
modifications: cysteine pairing not given here; also: fused to phage pIII
notes: Tested as clonal phage supernatant; not shown: fused to the pIII filament protein of the bacteriophage
B12: Phage-890 (peptide)
peptide: YCEGHLPQYFMKCL
modifications: cysteine pairing not given here; also: fused to phage pIII
notes: as for B5
B13: Phage-905 (peptide)
peptide: YCDGHSWQYISKCL
notes: as for B1
B14: Phage-889 (peptide)
peptide: YCEGHAQEYMSKCL
modifications: cysteine pairing not given here; also: fused to phage pIII
notes: as for B5
B15: Phage-883 (peptide)
peptide: YCAGHSAEYMWKCL
modifications: cysteine pairing not given here; also: fused to phage pIII
notes: as for B5
B16: Phage-884 (peptide)
peptide: YCDGHLQIYMHKCL
modifications: cysteine pairing not given here; also: fused to phage pIII
notes: as for B5
B17: Phage-917 (peptide)
peptide: YCDGHSPEYIGKCL
notes: as for B1
B18: Phage-908 (peptide)
peptide: YCDGHSREYMSKCL
notes: as for B1
B19: Phage-906 (peptide)
peptide: YCEGHAPQYMNKCL
notes: as for B1
B20: Phage-911 (peptide)
peptide: YCEGHAPQYMTKCL
notes: as for B1
B21: Phage-891 (peptide)
peptide: YCDGHSWEYMEKCL
modifications: cysteine pairing not given here; also: fused to phage pIII
notes: as for B5
B22: Phage-885 (peptide)
peptide: YCAGHSMEYMAKCL
modifications: cysteine pairing not given here; also: fused to phage pIII
notes: as for B5
B23: Phage-886 (peptide)
peptide: YCDGHLPEYFLKCL
modifications: cysteine pairing not given here; also: fused to phage pIII
notes: as for B5

Columns and labels:
[1] = molecular target: T1, Anti-CD28 Fab (SEQ ID NOs: 696, 697); experiment: phage ELISA; as above with CD28 antigen as competitor pre-incubated on the Fab coated wells
T1 construct: Biotinylated and captured on neutravidin coated plates in the phage ELISA
T1 sequence (VH, as listed by the source, chain 1 of 2): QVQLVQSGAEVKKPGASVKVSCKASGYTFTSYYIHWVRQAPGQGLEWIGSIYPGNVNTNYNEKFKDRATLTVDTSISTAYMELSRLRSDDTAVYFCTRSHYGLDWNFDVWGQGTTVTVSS
T1 sequence (VL, as listed by the source, chain 2 of 2): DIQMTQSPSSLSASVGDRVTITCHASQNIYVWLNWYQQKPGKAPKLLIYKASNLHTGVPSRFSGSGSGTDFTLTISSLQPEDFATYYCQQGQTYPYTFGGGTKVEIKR
Method: (§1) After panning, phage infected bacteria were plated out and colonies picked into 96 well blocks. Clonal phage was then amplified and separated from bacterial cells via centrifugation.
(§2) Clonal phage were harvested as crude supematants and screened via standard ELISAs. […] Prior to the addition of clonal phage, wells were incubated with blocking buffer and CD28 antigen or blocking buffer alone. Without washing or aspirating, clonal phage supematants were then added to the wells and incubated for a short time. Wells were then washed followed by detection of bound phage using a horse radish conjugated anti-M13 antibody. Clonal phage of interest were then sent for sequence analysis.

[2] = molecular target: T1, Anti-CD28 Fab (SEQ ID NOs: 696, 697); experiment: phage ELISA; biotinylated anti-CD28 Fab on neutravidin plates, clonal phage supernatant, anti-M13 HRP detection
Method: as §1, §2

[3] = molecular target: Anti-CD28 Fab (SEQ ID NOs: 696, 697); experiment: phage binding ELISA; biotinylated anti-CD28 Fab on neutravidin plate, clonal phage supernatant, anti-M13 HRP detection
Target sequence in this assay (VH, as listed by the source, chain 1 of 2): as the sequence (VH, as listed by the source, chain 1 of 2) above
Target sequence in this assay (VL, as listed by the source, chain 2 of 2): as the sequence (VL, as listed by the source, chain 2 of 2) above

[4] = molecular target: Anti-CD28 Fab (SEQ ID NOs: 696, 697); experiment: phage binding ELISA on captured anti-CD28 Fab; competitor: CD28 antigen preincubated in the wells
Target sequence in this assay (VH, as listed by the source, chain 1 of 2): as the sequence (VH, as listed by the source, chain 1 of 2) above
Target sequence in this assay (VL, as listed by the source, chain 2 of 2): as the sequence (VL, as listed by the source, chain 2 of 2) above

[5] = molecular target: T2, Anti-CD28 Fab (SEQ ID NOs: 696, 697); experiment: phage ELISA; biotinylated anti-CD28 Fab on neutravidin plate, bound phage detected with anti-M13-HRP
T2 construct: In the phage ELISA the Fab was biotinylated and captured on neutravidin coated plates
T2 sequence (VH, as listed by the source, chain 1 of 2): as the sequence (VH, as listed by the source, chain 1 of 2) above
T2 sequence (VL, as listed by the source, chain 2 of 2): as the sequence (VL, as listed by the source, chain 2 of 2) above
Method: as §1, §2

[6] = molecular target: T2, Anti-CD28 Fab (SEQ ID NOs: 696, 697); experiment: phage ELISA on captured anti-CD28 Fab; competitor: CD28 antigen pre-incubated in the well
Method: as §1, §2

[7] = molecular target: T3, Anti-CD28 Fab (SEQ ID NOs: 696, 697); experiment: phage binding ELISA; Fab-coated wells pre-incubated with CD28 antigen as competitor, anti-M13 HRP detection;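 further: crude clonal phage supernatants from panned colonies added to wells after blocking buffer plus CD28 treatment, bound phage measured after a brief incubation and washing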
T3 construct: In the phage ELISA the Fab was biotinylated and captured on neutravidin coated plates
T3 sequence (VH, as listed by the source, chain 1 of 2): as the sequence (VH, as listed by the source, chain 1 of 2) above
T3 sequence (VL, as listed by the source, chain 2 of 2): as the sequence (VL, as listed by the source, chain 2 of 2) above

[8] = molecular target: T3, Anti-CD28 Fab (SEQ ID NOs: 696, 697); experiment: phage binding ELISA; biotinylated anti-CD28 Fab on neutravidin plate, clonal phage supernatant, anti-M13 HRP detection

Binder | Phage binding ELISA, Anti-CD28 Fab signal in the presence of CD28 [1] | Phage binding ELISA, Anti-CD28 Fab signal [2] | Anti-CD28 Fab signal (phage binding ELISA) [3] | Anti-CD28 Fab signal in the presence of CD28 (phage binding ELISA) [4] | also measured
YCEGHKPEYMQKCL (Tested as clonal phage supernatant) [Phage-897 (Peptide-87 library clone, YCEGHKPEYMQKCL)] | 0.06 | 1.69 | – | – | –
B1 | – | – | 1.67 | 0.1 | –
B2 | – | – | 1.67 | 0.06 | –
YCDGHAKEYMDKCL (Tested as clonal phage supernatant) [Phage-902 (Peptide-87 library clone, YCDGHAKEYMDKCL)] | 0.08 | 1.68 | – | – | –
YCEGHSPWYMNKCL (Tested as clonal phage supernatant) [Phage-899 (Peptide-87 library clone, YCEGHSPWYMNKCL)] | 0.06 | 1.68 | – | – | –
B3 | – | – | 1.66 | 0.06 | –
B4 | – | – | 1.66 | 0.08 | –
YCDGHLPVYLEKCL (Tested as clonal phage supernatant) [Phage-894 (Peptide-87 library clone, YCDGHLPVYLEKCL)] | 0.06 | 1.69 | – | – | –
B5 | – | – | – | – | Anti-CD28 Fab signal (phage binding ELISA) [5]: 1.7; Anti-CD28 Fab signal in the presence of CD28 [6]: 0.05
YCEGHSAEYMQKCL (Tested as clonal phage supernatant) [Phage-893 (Peptide-87 library clone, YCEGHSAEYMQKCL)] | 0.29 | 1.7 | – | – | –
B6 | – | – | 1.66 | 0.07 | –
B7 | – | – | 1.67 | 0.07 | –
B8 | – | – | 1.67 | 0.07 | –
YCDGHSSLYMHKCL (Tested as clonal phage supernatant) [Phage-904 (Peptide-87 library clone, YCDGHSSLYMHKCL)] | 0.07 | 1.67 | – | – | –
B9 | – | – | 1.66 | 0.09 | –
B10 | – | – | – | – | Anti-CD28 Fab signal (phage binding ELISA) [5]: 1.7; Anti-CD28 Fab signal in the presence of CD28 [6]: 0.06
YCAGHSPLYMLKCL (Tested as clonal phage supernatant) [Phage-892 (Peptide-87 library clone, YCAGHSPLYMLKCL)] | 0.1 | 1.7 | – | – | –
B11 | – | – | – | – | Anti-CD28 Fab signal in the presence of CD28 (phage binding ELISA) [7]: 0.06; Anti-CD28 Fab signal (phage binding ELISA) [8]: 1.66

Binder | Phage binding ELISA, Anti-CD28 Fab signal in the presence of CD28 [1] | Phage binding ELISA, Anti-CD28 Fab signal [2] | Anti-CD28 Fab signal (phage binding ELISA) [3] | Anti-CD28 Fab signal in the presence of CD28 (phage binding ELISA) [4] | also measured
YCDGHSTEYMEKCL (Tested as clonal phage supernatant) [Phage-903 (Peptide-87 library clone, YCDGHSTEYMEKCL)] | 0.08 | 1.68 | – | – | –
B12 | – | – | – | – | Anti-CD28 Fab signal (phage binding ELISA) [5]: 1.7; Anti-CD28 Fab signal in the presence of CD28 [6]: 0.07
B13 | – | – | 1.67 | 0.05 | –
YCDGHSPAYIWKCL (Tested as clonal phage supernatant) [Phage-900 (Peptide-87 library clone, YCDGHSPAYIWKCL)] | 0.08 | 1.68 | – | – | –
B14 | – | – | – | – | Anti-CD28 Fab signal (phage binding ELISA) [5]: 1.7; Anti-CD28 Fab signal in the presence of CD28 [6]: 0.08
B15 | – | – | – | – | Anti-CD28 Fab signal (phage binding ELISA) [5]: 1.71; Anti-CD28 Fab signal in the presence of CD28 [6]: 0.11
B16 | – | – | – | – | Anti-CD28 Fab signal (phage binding ELISA) [5]: 1.71; Anti-CD28 Fab signal in the presence of CD28 [6]: 0.1
B17 | – | – | 1.66 | 0.07 | –
YCDGHAWEYMTKCL (Tested as clonal phage supernatant) [Phage-898 (Peptide-87 library clone, YCDGHAWEYMTKCL)] | 0.35 | 1.69 | – | – | –
B18 | – | – | 1.67 | 0.1 | –
B19 | – | – | 1.67 | 0.08 | –
B20 | – | – | 1.67 | 0.08 | –
YCDGHSEQYMSKCL (Tested as clonal phage supernatant) [Phage-901 (Peptide-87 library clone, YCDGHSEQYMSKCL)] | 0.07 | 1.68 | – | – | –
YCAGHLQEYMQKCL (Tested as clonal phage supernatant) [Phage-895 (Peptide-87 library clone, YCAGHLQEYMQKCL)] | 0.07 | 1.69 | – | – | –
B21 | – | – | – | – | Anti-CD28 Fab signal (phage binding ELISA) [5]: 1.7; Anti-CD28 Fab signal in the presence of CD28 [6]: 0.12
YCDGHAIEYMAKCL (Tested as clonal phage supernatant) [Phage-896 (Peptide-87 library clone, YCDGHAIEYMAKCL)] | 0.08 | 1.69 | – | – | –
B22 | – | – | – | – | Anti-CD28 Fab signal (phage binding ELISA) [5]: 1.71; Anti-CD28 Fab signal in the presence of CD28 [6]: 0.07
B23 | – | – | – | – | Anti-CD28 Fab signal (phage binding ELISA) [5]: 1.71; Anti-CD28 Fab signal in the presence of CD28 [6]: 0.11

From patent US20260242478A1 (published 2026)
